According to patent US20220048967A1 (published 2022):
Numbered stars: 1 amine (or outer) side, 2 acyl side, 3 side chain; on linkers, the order of the positions; unused ones are H or OH. Square brackets hold non-standard residues; d marks the D form. Side chains are listed from the residue outwards. Ends that are not written are not given here. * marks the point of attachment. C20 diacid = O=C(O)CCCCCCCCCCCCCCCCCCC(=O)*; γGlu = O=C(O)[C@H](CCC(=O)[*:2])N[*:1]; AEEA = NCCOCCOCC(=O)O; Aib = CC(C)(N)C(=O)O

T1: human GIP receptor (human, UniProt P48546 22-466)
T1 sequence (looked up): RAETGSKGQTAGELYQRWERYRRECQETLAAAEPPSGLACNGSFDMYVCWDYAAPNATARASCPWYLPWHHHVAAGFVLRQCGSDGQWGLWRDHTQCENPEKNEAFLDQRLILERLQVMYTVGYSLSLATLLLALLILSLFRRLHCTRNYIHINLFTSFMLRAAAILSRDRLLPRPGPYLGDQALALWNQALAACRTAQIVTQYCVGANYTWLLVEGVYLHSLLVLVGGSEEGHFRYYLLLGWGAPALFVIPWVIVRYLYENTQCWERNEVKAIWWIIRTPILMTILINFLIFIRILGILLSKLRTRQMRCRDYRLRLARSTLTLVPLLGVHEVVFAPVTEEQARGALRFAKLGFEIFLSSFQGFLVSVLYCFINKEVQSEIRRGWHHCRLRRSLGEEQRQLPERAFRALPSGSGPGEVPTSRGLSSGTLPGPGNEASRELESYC


How the values were obtained:
human GLP-1 receptor = human GLP-1 receptor (human, UniProt P43220 24-463); experiment: cell-based or functional assay
human GIP receptor = molecular target: T1, human GIP receptor; experiment: cell-based or functional assay

| Binder | hGLP1R cAMP EC50 ratio (human GLP-1 receptor) | hGLP1R cAMP Rel EC50 (human GLP-1 receptor) | hGIPR cAMP EC50 ratio (human GIP receptor) | hGIPR cAMP Rel EC50 (human GIP receptor) |
| --- | --- | --- | --- | --- |
| Y[Aib]EGTFTSDYSILLD[Aib]IAQK([AEEA-AEEA-γGlu-C20 diacid])AFIEYLIEGGPSSGAPPPS-NH2 (N-terminus assumed; SMILES CC[C@H](C)[C@H](NC(=O)[C@H](CC(C)C)NC(=O)[C@H](Cc1ccc(O)cc1)NC(=O)[C@H](CCC(=O)O)NC(=O)[C@@H](NC(=O)[C@H](Cc1ccccc1)NC(=O)[C@H](C)NC(=O)[C@H](CCCCNC(=O)COCCOCCNC(=O)COCCOCCNC(=O)CC[C@H](NC(=O)CCCCCCCCCCCCCCCCCCC(=O)O)C(=O)O)NC(=O)[C@H](CCC(N)=O)NC(=O)[C@H](C)NC(=O)[C@@H](NC(=O)C(C)(C)NC(=O)[C@H](CC(=O)O)NC(=O)[C@H](CC(C)C)NC(=O)[C@H](CC(C)C)NC(=O)[C@@H](NC(=O)[C@H](CO)NC(=O)[C@H](Cc1ccc(O)cc1)NC(=O)[C@H](CC(=O)O)NC(=O)[C@H](CO)NC(=O)[C@@H](NC(=O)[C@H](Cc1ccccc1)NC(=O)[C@@H](NC(=O)CNC(=O)[C@H](CCC(=O)O)NC(=O)C(C)(C)NC(=O)[C@@H](N)Cc1ccc(O)cc1)[C@@H](C)O)[C@@H](C)O)[C@@H](C)CC)[C@@H](C)CC)[C@@H](C)CC)C(=O)N[C@@H](CCC(=O)O)C(=O)NCC(=O)NCC(=O)N1CCC[C@H]1C(=O)N[C@@H](CO)C(=O)N[C@@H](CO)C(=O)NCC(=O)N[C@@H](C)C(=O)N1CCC[C@H]1C(=O)N1CCC[C@H]1C(=O)N1CCC[C@H]1C(=O)N[C@@H](CO)C(N)=O) [Example 13] | 0.0133 | 5.39 nM | 0.18 | 1.05 nM |
| H[Aib]EGTFTSDYSILLDKK([AEEA-AEEA-γGlu-C20 diacid])AQ[Aib]AFIEYLIE[Aib]GPSSGAPPPS-NH2 (N-terminus assumed; SMILES CC[C@H](C)[C@H](NC(=O)[C@H](Cc1ccccc1)NC(=O)[C@H](C)NC(=O)C(C)(C)NC(=O)[C@H](CCC(N)=O)NC(=O)[C@H](C)NC(=O)[C@H](CCCCNC(=O)COCCOCCNC(=O)COCCOCCNC(=O)CC[C@H](NC(=O)CCCCCCCCCCCCCCCCCCC(=O)O)C(=O)O)NC(=O)[C@H](CCCCN)NC(=O)[C@H](CC(=O)O)NC(=O)[C@H](CC(C)C)NC(=O)[C@H](CC(C)C)NC(=O)[C@@H](NC(=O)[C@H](CO)NC(=O)[C@H](Cc1ccc(O)cc1)NC(=O)[C@H](CC(=O)O)NC(=O)[C@H](CO)NC(=O)[C@@H](NC(=O)[C@H](Cc1ccccc1)NC(=O)[C@@H](NC(=O)CNC(=O)[C@H](CCC(=O)O)NC(=O)C(C)(C)NC(=O)[C@@H](N)Cc1c[nH]cn1)[C@@H](C)O)[C@@H](C)O)[C@@H](C)CC)C(=O)N[C@@H](CCC(=O)O)C(=O)N[C@@H](Cc1ccc(O)cc1)C(=O)N[C@@H](CC(C)C)C(=O)N[C@H](C(=O)N[C@@H](CCC(=O)O)C(=O)NC(C)(C)C(=O)NCC(=O)N1CCC[C@H]1C(=O)N[C@@H](CO)C(=O)N[C@@H](CO)C(=O)NCC(=O)N[C@@H](C)C(=O)N1CCC[C@H]1C(=O)N1CCC[C@H]1C(=O)N1CCC[C@H]1C(=O)N[C@@H](CO)C(N)=O)[C@@H](C)CC) [Example 16] | 1.43 | 0.0437 nM | 0.157 | 0.975 nM |
| Y[Aib]EGTFTSDYSILLDSIAQ[Aib]AFIK([AEEA-AEEA-γGlu-C20 diacid])YLLA[Aib]GPSSGAPPPS-NH2 (N-terminus assumed; SMILES CC[C@H](C)[C@H](NC(=O)[C@H](CO)NC(=O)[C@H](CC(=O)O)NC(=O)[C@H](CC(C)C)NC(=O)[C@H](CC(C)C)NC(=O)[C@@H](NC(=O)[C@H](CO)NC(=O)[C@H](Cc1ccc(O)cc1)NC(=O)[C@H](CC(=O)O)NC(=O)[C@H](CO)NC(=O)[C@@H](NC(=O)[C@H](Cc1ccccc1)NC(=O)[C@@H](NC(=O)CNC(=O)[C@H](CCC(=O)O)NC(=O)C(C)(C)NC(=O)[C@@H](N)Cc1ccc(O)cc1)[C@@H](C)O)[C@@H](C)O)[C@@H](C)CC)C(=O)N[C@@H](C)C(=O)N[C@@H](CCC(N)=O)C(=O)NC(C)(C)C(=O)N[C@@H](C)C(=O)N[C@@H](Cc1ccccc1)C(=O)N[C@H](C(=O)N[C@@H](CCCCNC(=O)COCCOCCNC(=O)COCCOCCNC(=O)CC[C@H](NC(=O)CCCCCCCCCCCCCCCCCCC(=O)O)C(=O)O)C(=O)N[C@@H](Cc1ccc(O)cc1)C(=O)N[C@@H](CC(C)C)C(=O)N[C@@H](CC(C)C)C(=O)N[C@@H](C)C(=O)NC(C)(C)C(=O)NCC(=O)N1CCC[C@H]1C(=O)N[C@@H](CO)C(=O)N[C@@H](CO)C(=O)NCC(=O)N[C@@H](C)C(=O)N1CCC[C@H]1C(=O)N1CCC[C@H]1C(=O)N1CCC[C@H]1C(=O)N[C@@H](CO)C(N)=O)[C@@H](C)CC) [Example 10] | 0.00912 | 7.64 nM | 0.151 | 1.28 nM |
| Y[Aib]EGTFTSDYSILLDKIAQKEFIQYLLE[Aib]GPSSGAPPPS-NH2 (not fully specified (residue 20)) [Example 14] | 0.0306 | 1.87 nM | 0.545 | 0.284 nM |
| Y[Aib]EGTFTSDYSILLDSIAQ[Aib]AFIEYLLK([AEEA-AEEA-γGlu-C20 diacid])[Aib]GPSSGAPPPS-NH2 (N-terminus assumed; SMILES CC[C@H](C)[C@H](NC(=O)[C@H](CO)NC(=O)[C@H](CC(=O)O)NC(=O)[C@H](CC(C)C)NC(=O)[C@H](CC(C)C)NC(=O)[C@@H](NC(=O)[C@H](CO)NC(=O)[C@H](Cc1ccc(O)cc1)NC(=O)[C@H](CC(=O)O)NC(=O)[C@H](CO)NC(=O)[C@@H](NC(=O)[C@H](Cc1ccccc1)NC(=O)[C@@H](NC(=O)CNC(=O)[C@H](CCC(=O)O)NC(=O)C(C)(C)NC(=O)[C@@H](N)Cc1ccc(O)cc1)[C@@H](C)O)[C@@H](C)O)[C@@H](C)CC)C(=O)N[C@@H](C)C(=O)N[C@@H](CCC(N)=O)C(=O)NC(C)(C)C(=O)N[C@@H](C)C(=O)N[C@@H](Cc1ccccc1)C(=O)N[C@H](C(=O)N[C@@H](CCC(=O)O)C(=O)N[C@@H](Cc1ccc(O)cc1)C(=O)N[C@@H](CC(C)C)C(=O)N[C@@H](CC(C)C)C(=O)N[C@@H](CCCCNC(=O)COCCOCCNC(=O)COCCOCCNC(=O)CC[C@H](NC(=O)CCCCCCCCCCCCCCCCCCC(=O)O)C(=O)O)C(=O)NC(C)(C)C(=O)NCC(=O)N1CCC[C@H]1C(=O)N[C@@H](CO)C(=O)N[C@@H](CO)C(=O)NCC(=O)N[C@@H](C)C(=O)N1CCC[C@H]1C(=O)N1CCC[C@H]1C(=O)N1CCC[C@H]1C(=O)N[C@@H](CO)C(N)=O)[C@@H](C)CC) [Example 11] | 0.0111 | 6.89 nM | 0.399 | 0.486 nM |
| H[Aib]EGTFTSDYSILLDKKAQ[Aib]AFIEYLLE[Aib]GPSSGAPPPS-NH2 (not fully specified (residue 17)) [Example 15] | 1.65 | 0.0336 nM | 0.273 | 0.613 nM |
| Y[Aib]EGTFTSDYSILLDKIAQK([AEEA-AEEA-γGlu-C20 diacid])AFIEYLIEGGPSSGAPPPS-NH2 (N-terminus assumed; SMILES CC[C@H](C)[C@H](NC(=O)[C@H](CCCCN)NC(=O)[C@H](CC(=O)O)NC(=O)[C@H](CC(C)C)NC(=O)[C@H](CC(C)C)NC(=O)[C@@H](NC(=O)[C@H](CO)NC(=O)[C@H](Cc1ccc(O)cc1)NC(=O)[C@H](CC(=O)O)NC(=O)[C@H](CO)NC(=O)[C@@H](NC(=O)[C@H](Cc1ccccc1)NC(=O)[C@@H](NC(=O)CNC(=O)[C@H](CCC(=O)O)NC(=O)C(C)(C)NC(=O)[C@@H](N)Cc1ccc(O)cc1)[C@@H](C)O)[C@@H](C)O)[C@@H](C)CC)C(=O)N[C@@H](C)C(=O)N[C@@H](CCC(N)=O)C(=O)N[C@@H](CCCCNC(=O)COCCOCCNC(=O)COCCOCCNC(=O)CC[C@H](NC(=O)CCCCCCCCCCCCCCCCCCC(=O)O)C(=O)O)C(=O)N[C@@H](C)C(=O)N[C@@H](Cc1ccccc1)C(=O)N[C@H](C(=O)N[C@@H](CCC(=O)O)C(=O)N[C@@H](Cc1ccc(O)cc1)C(=O)N[C@@H](CC(C)C)C(=O)N[C@H](C(=O)N[C@@H](CCC(=O)O)C(=O)NCC(=O)NCC(=O)N1CCC[C@H]1C(=O)N[C@@H](CO)C(=O)N[C@@H](CO)C(=O)NCC(=O)N[C@@H](C)C(=O)N1CCC[C@H]1C(=O)N1CCC[C@H]1C(=O)N1CCC[C@H]1C(=O)N[C@@H](CO)C(N)=O)[C@@H](C)CC)[C@@H](C)CC) [Example 12] | 0.0603 | 1.15 nM | 0.659 | 0.3 nM |
